Sequences and labels used below:
B1: PTPRD (parent)
chain: MVHVARLLLLLLTFFLRTDAETPP
B2: CDC25A (parent)
chain: KPIVPTDGKRVIVVFHCEFSSERG

The results in this text go back to the supplement of paper PMC10567573.
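Further: lentivirally expressed fusions sorted by FACS into six bins by GFP to DsRed ratio, PSI derived from sequencing read proportions per bin multiplied by bin number.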

One data set covers variants of B1. Put plainly: protein stability index of a GFP-peptide fusion (GPS, HEK-293T) (PSI 1-6); higher = more stable. The settings on record: c terminus: a fixed tail appended.
With MVHVARLLLLLLTSFLRTDAETPP [F14S], the protein stability index was determined as 1.99. Still for that read-out and setting: in the case of MVHVADLLLLLLTFFLRTDAETPP [R6D] it was 3.08; in that of MVHVACLLLLLLTFFLRTDAETPP [R6C], 2.16; in that of MVHVATLLLLLLTFFLRTDAETPP [R6T], 2.3. Same read-out and setting: in the case of MVHVARLLLILLTFFLRTDAETPP [L10I] it was 4.4. Take MVHVARLLLFLLTFFLRTDAETPP [L10F]: the protein stability index is 2.43.

For the variant MVHVARLLLGLLTFFLRTDAETPP [L10G], the protein stability index stood at 1.33.

As for MVHVARLLLELLTFFLRTDAETPP [L10E], the protein stability index came out at 2.79. Same read-out and setting: in the case of MVHVARLLLLLLTFFLRTDAMTPP [E21M] it was 3.64. On the same count and under the same terms, to MVHVARLLLLLPTFFLRTDAETPP [L12P] belongs 2.19; to MVHVARLLLLLRTFFLRTDAETPP [L12R], 2.03.

Regarding MVHVARLLLLLFTFFLRTDAETPP [L12F], the protein stability index was determined as 3. Still for that read-out and setting: to MVHVARLLLLLGTFFLRTDAETPP [L12G] belongs 2.46. On the same count and under the same terms, to MVHVARLLLLLLTFFLRTDAETVP [P23V] belongs 2.46; to MVHVARLLLLLLTFFLRTDAETNP [P23N], 2.49. The same measure, in the same setting: in the case of MVHVTRLLLLLLTFFLRTDAETPP [A5T] it was 2.7; in that of MVHVWRLLLLLLTFFLRTDAETPP [A5W], 2.51; in that of MVHVHRLLLLLLTFFLRTDAETPP [A5H], 4.03. As to MVHVARLLLLLLTFFLITDAETPP [R17I], the protein stability index stood at 2.17. On the same count and under the same terms, in the case of MVHVARLLLLLLTFFLNTDAETPP [R17N] it was 3.08; in that of MVHVARLLLLLLTFFLVTDAETPP [R17V], 2.9; in that of MVHVARLDLLLLTFFLRTDAETPP [L8D], 3.8. On the same count and under the same terms, in the case of MVHVARLKLLLLTFFLRTDAETPP [L8K] it was 1.98; in that of MVHVARLQLLLLTFFLRTDAETPP [L8Q], 2.18; in that of MVHVARLLLLLLTFFLRHDAETPP [T18H], 2.3. With MVHVARLLLLLLMFFLRTDAETPP [T13M], the protein stability index was found to be 3.59. For MVHVARLLLLLLPFFLRTDAETPP [T13P], the protein stability index was 2.14. On the same count and under the same terms, in the case of MVHVARLLLLLLKFFLRTDAETPP [T13K] it was 2.03; in that of MVHVARLLLLLLTFWLRTDAETPP [F15W], 2.81; in that of MVHVARLLLLLLTFDLRTDAETPP [F15D], 2.02. On the same count and under the same terms, to MVHVARLLLLLLTFLLRTDAETPP [F15L] belongs 2.13; to MVHVARLLLLLLTFPLRTDAETPP [F15P], 2.01; to MVHVARLLLLLLTFNLRTDAETPP [F15N], 3.47. The same measure, in the same setting: to MVHVARLLLLLLTFFARTDAETPP [L16A] belongs 1.49. For the variant MVHVARLLLLLLTFFDRTDAETPP [L16D], the protein stability index was found to be 3.53. Take MVHVARLLLLLLTFFNRTDAETPP [L16N]: the protein stability index is 2.12. Same read-out and setting: to MVHVARLLLLLLTFFERTDAETPP [L16E] belongs 3.34; to MVHVARLLLLLLTFFRRTDAETPP [L16R], 1.72; to MVHVARLLLLFLTFFLRTDAETPP [L11F], 2.56. Still for that read-out and setting: to MVHVARLLLLSLTFFLRTDAETPP [L11S] belongs 3.85; to MVCVARLLLLLLTFFLRTDAETPP [H3C], 4.98. Still for that read-out and setting: in the case of MVPVARLLLLLLTFFLRTDAETPP [H3P] it was 1.49. As to MVDVARLLLLLLTFFLRTDAETPP [H3D], the protein stability index came out at 2.1. Same read-out and setting: in the case of MTHVARLLLLLLTFFLRTDAETPP [V2T] it was 2.06.

On to MMHVARLLLLLLTFFLRTDAETPP [V2M], for which the protein stability index came out at 2.69. In the case of MDHVARLLLLLLTFFLRTDAETPP [V2D], the protein stability index was 2.92. Turning to MVHVARHLLLLLTFFLRTDAETPP [L7H], the protein stability index amounted to 2.1. On the same count and under the same terms, to MVHVARCLLLLLTFFLRTDAETPP [L7C] belongs 2.95.

Take MVHMARLLLLLLTFFLRTDAETPP [V4M]: the protein stability index came out at 1.46. Still for that read-out and setting: in the case of MVHYARLLLLLLTFFLRTDAETPP [V4Y] it was 1.52; in that of MVHTARLLLLLLTFFLRTDAETPP [V4T], 2.52; in that of MVHVARLLSLLLTFFLRTDAETPP [L9S], 2.29. Take MVHVARLLMLLLTFFLRTDAETPP [L9M]: the protein stability index turned out to be 1.87. The same measure, in the same setting: to MVHVARLLKLLLTFFLRTDAETPP [L9K] belongs 3.08; to MVHVARLLDLLLTFFLRTDAETPP [L9D], 3.06. The same measure, in the same setting: in the case of MVHVARLLLLLLTFFLRTQAETPP [D19Q] it was 2.75; in that of MVHVARLLLLLLTFFLRTSAETPP [D19S], 1.84.

As to MVHVARLLLLLLTFFLRTKAETPP [D19K], the protein stability index worked out at 2.29. Regarding MVHVARLLLLLLTFFLRTAAETPP [D19A], the protein stability index stood at 2.91. For the variant MVHVARLLLLLLTFFLRTDHETPP [A20H], the protein stability index is 3.11.

Variants of B2 are the subject of the next data set. The data set is described as above. The settings on record: c terminus: a fixed tail appended.
KPIYPTDGKRVIVVFHCEFSSERG [V4Y]: the protein stability index came out at 2.58. Still for that read-out and setting: in the case of KPICPTDGKRVIVVFHCEFSSERG [V4C] it was 2.14.

Turning to KPIFPTDGKRVIVVFHCEFSSERG [V4F], the protein stability index turned out to be 2.24. For the variant KPISPTDGKRVIVVFHCEFSSERG [V4S], the protein stability index was 2.49.

Turning to KPIPPTDGKRVIVVFHCEFSSERG [V4P], the protein stability index was found to be 2.75. On the same count and under the same terms, in the case of KPILPTDGKRVIVVFHCEFSSERG [V4L] it was 2.33; in that of KPITPTDGKRVIVVFHCEFSSERG [V4T], 1.42; in that of KPIMPTDGKRVIVVFHCEFSSERG [V4M], 1.92.

As to KPIAPTDGKRVIVVFHCEFSSERG [V4A], the protein stability index was 2.12. As for KPIWPTDGKRVIVVFHCEFSSERG [V4W], the protein stability index came to 2.32. The same measure, in the same setting: in the case of KPINPTDGKRVIVVFHCEFSSERG [V4N] it was 3.39; in that of KPIGPTDGKRVIVVFHCEFSSERG [V4G], 2.33. For the variant KPIKPTDGKRVIVVFHCEFSSERG [V4K], the protein stability index worked out at 2.11. On to KPIEPTDGKRVIVVFHCEFSSERG [V4E], for which the protein stability index came to 1.48.

Take KPIHPTDGKRVIVVFHCEFSSERG [V4H]: the protein stability index came out at 2.17. Regarding KPIIPTDGKRVIVVFHCEFSSERG [V4I], the protein stability index was found to be 2.57. Take KPIRPTDGKRVIVVFHCEFSSERG [V4R]: the protein stability index turned out to be 3.53. The same measure, in the same setting: to KPIDPTDGKRVIVVFHCEFSSERG [V4D] belongs 2.51; to KPIQPTDGKRVIVVFHCEFSSERG [V4Q], 2.44. On the same count and under the same terms, in the case of KPHVPTDGKRVIVVFHCEFSSERG [I3H] it was 1.89; in that of KPRVPTDGKRVIVVFHCEFSSERG [I3R], 2.56. Same read-out and setting: to KPWVPTDGKRVIVVFHCEFSSERG [I3W] belongs 4.26; to KPTVPTDGKRVIVVFHCEFSSERG [I3T], 2.19; to KPMVPTDGKRVIVVFHCEFSSERG [I3M], 2.32.

In the case of KPSVPTDGKRVIVVFHCEFSSERG [I3S], the protein stability index was 1.1. Same read-out and setting: to KPFVPTDGKRVIVVFHCEFSSERG [I3F] belongs 2.09. Still for that read-out and setting: in the case of KPAVPTDGKRVIVVFHCEFSSERG [I3A] it was 3.14; in that of KPEVPTDGKRVIVVFHCEFSSERG [I3E], 2.1. Same read-out and setting: to KPGVPTDGKRVIVVFHCEFSSERG [I3G] belongs 1.7. Turning to KPDVPTDGKRVIVVFHCEFSSERG [I3D], the protein stability index amounted to 1.76.

As to KPKVPTDGKRVIVVFHCEFSSERG [I3K], the protein stability index stood at 2.47.

In the case of KPVVPTDGKRVIVVFHCEFSSERG [I3V], the protein stability index turned out to be 2.43. Same read-out and setting: in the case of KPNVPTDGKRVIVVFHCEFSSERG [I3N] it was 2.48; in that of KPPVPTDGKRVIVVFHCEFSSERG [I3P], 2.27.
